In patent publication US20120309051A1 (UNIVERSITY OF MEDICINE AND DENTISTRY OF NEW JERSEY, published 2012):

Biological target: T1, GFP-MG53 (GFP fused to the amino-terminus of full-length mouse MG53) (mouse, UniProt Q1XH17 1-477)
T1 sequence: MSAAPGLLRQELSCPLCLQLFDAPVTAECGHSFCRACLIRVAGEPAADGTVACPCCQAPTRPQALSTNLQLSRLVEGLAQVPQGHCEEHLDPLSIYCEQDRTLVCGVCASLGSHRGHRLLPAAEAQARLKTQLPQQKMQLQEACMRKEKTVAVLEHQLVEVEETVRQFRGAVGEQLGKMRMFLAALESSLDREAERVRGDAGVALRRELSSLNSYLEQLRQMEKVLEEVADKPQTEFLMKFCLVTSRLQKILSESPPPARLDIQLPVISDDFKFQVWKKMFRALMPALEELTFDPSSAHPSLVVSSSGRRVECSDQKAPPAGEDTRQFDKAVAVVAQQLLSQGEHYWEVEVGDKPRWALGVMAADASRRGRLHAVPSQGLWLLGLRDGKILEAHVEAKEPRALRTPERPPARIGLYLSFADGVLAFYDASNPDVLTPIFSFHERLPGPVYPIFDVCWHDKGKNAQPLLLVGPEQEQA
Assay: cell-based or functional assay

B1: caveolin-3 (recombinant, expressed from pcDNA-Cav-3) (other)
chain: MMAEEHTDLEAQIVKDIHCKEIDLVNRDPKNINEDIVKVDFEDVIAEPVGTYSFDGVWKVSYTTFTVSKYWCYRLLSTLLGVPLALLWGFLFACISFCHIWAVVPCIKSYLIEIQCISHIYSLCIRTFCNPLFAALGQVCSSIKVVLRKEV
reduction in the appearance of filapodia-like structures (C2C12 myoblasts transfected with caveolin-3 and GFP-MG53 in a ratio of 10:1): 82%
